Legend:
[1] = target: FGFR1c endogenously expressed by HEK293 cells transiently transfected with murine βKlotho (UniProt P11362 22-822); experiment: cell-based or functional assay
[2] = target: T1, ectodomain of murine αKlotho (A35 to K982 of SEQ ID NO: 231) with a C-terminal FLAG tag (murine, UniProt O35082 35-982); experiment: SPR; FGF21 immobilized, increasing concentrations of αKlotho ectodomain passed over the chip (FIG. 4E)
T1 construct: Purified from culture media of a HEK293 cell line; also called αKlotho ectodomain; not shown: C-terminal FLAG tag
T1 sequence: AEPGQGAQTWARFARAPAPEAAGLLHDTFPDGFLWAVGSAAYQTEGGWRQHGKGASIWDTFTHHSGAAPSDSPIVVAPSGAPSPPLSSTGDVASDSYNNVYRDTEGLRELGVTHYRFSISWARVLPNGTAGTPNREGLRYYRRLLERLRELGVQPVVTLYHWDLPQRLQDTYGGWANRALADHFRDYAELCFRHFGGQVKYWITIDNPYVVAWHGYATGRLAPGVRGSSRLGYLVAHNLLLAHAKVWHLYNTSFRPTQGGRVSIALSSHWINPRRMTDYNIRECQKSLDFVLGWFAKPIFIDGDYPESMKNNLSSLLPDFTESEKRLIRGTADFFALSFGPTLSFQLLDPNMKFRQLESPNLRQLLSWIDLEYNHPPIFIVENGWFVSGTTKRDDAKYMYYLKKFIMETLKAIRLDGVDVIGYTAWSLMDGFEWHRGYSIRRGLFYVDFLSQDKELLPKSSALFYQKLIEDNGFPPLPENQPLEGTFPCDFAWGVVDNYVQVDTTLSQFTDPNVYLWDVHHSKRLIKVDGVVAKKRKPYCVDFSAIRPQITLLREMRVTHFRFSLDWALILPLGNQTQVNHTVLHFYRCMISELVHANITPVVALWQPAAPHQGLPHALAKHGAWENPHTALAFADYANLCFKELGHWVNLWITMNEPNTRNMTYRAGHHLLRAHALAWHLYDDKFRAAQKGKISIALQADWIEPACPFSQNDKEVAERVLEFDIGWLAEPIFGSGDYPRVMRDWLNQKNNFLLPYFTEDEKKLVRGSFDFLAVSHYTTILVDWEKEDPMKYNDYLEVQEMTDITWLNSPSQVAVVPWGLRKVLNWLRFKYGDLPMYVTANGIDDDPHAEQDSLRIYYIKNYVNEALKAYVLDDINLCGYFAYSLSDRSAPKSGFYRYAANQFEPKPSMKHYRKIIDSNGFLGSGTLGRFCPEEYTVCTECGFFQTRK
Procedure: SPR experiments were performed on a Biacore 2000 instrument (Biacore AB), and all the protein-protein and protein-peptide interactions were studied at 25° C. in HBS-EP buffer (10 mM HEPES-NaOH, pH 7.4, 150 mM NaCl, 3 mM EDTA, 0.005% (v/v) polysorbate 20). Proteins were immobilized by amine coupling on flow channels of research grade CM5 chips (Biacore AB). Proteins were injected over a CM5 chip at a flow rate of 50 μl min⁻¹, and at the end of each protein injection (180 s), HBS-EP buffer (50 μl min⁻¹) was flowed over the chip to monitor dissociation for 180 s. In experiments where βKlotho binding to FGFR was analyzed, the chip surface was then regenerated by injecting 50 μl of 2.0 M NaCl in 10 mM sodium/potassium phosphate, pH 6.5. In experiments where α/βKlotho binding to FGF19/21/23 or binding of the FGFR1c-βKlotho complex to FGF21 was studied, 2.0 M NaCl in 10 mM sodium acetate, pH 4.5 was used for chip regeneration. To control for nonspecific binding in experiments where the ectodomain of αKlotho or βKlotho was immobilized on the chip, β-glucuronidase was coupled to the control flow channel of the chip (˜43-68 fmol/mm²). […] For each protein injection over a chip onto which αKlotho or βKlotho had been immobilized, the nonspecific responses from the β-glucuronidase control flow channel were subtracted from the responses recorded for the α/βKlotho flow channel.

[3] = target: T2, 1:1 complex of FGFR1c ligand-binding domain and αKlotho ectodomain (human; murine, UniProt P11362 142-365; O35082 35-982); experiment: SPR; FGF21 immobilized, 1:1 FGFR1c-αKlotho complex passed over the chip (FIG. 1D)
T2 construct: also called FGFR1c-αKlotho complex; binary FGFR1c-αKlotho complex; not shown: C-terminal FLAG tag
T2 sequence 1: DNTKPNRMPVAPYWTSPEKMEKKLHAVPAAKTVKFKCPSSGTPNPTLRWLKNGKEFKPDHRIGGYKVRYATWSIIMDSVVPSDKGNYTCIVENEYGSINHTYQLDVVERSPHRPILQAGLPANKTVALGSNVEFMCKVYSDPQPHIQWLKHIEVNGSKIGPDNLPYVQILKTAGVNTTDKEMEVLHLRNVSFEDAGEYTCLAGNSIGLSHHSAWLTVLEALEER
T2 sequence 2: T1 sequence

FGFR1c endogenously expressed by HEK293 cells transiently transfected with murine βKlotho, sequence (P11362 22-822): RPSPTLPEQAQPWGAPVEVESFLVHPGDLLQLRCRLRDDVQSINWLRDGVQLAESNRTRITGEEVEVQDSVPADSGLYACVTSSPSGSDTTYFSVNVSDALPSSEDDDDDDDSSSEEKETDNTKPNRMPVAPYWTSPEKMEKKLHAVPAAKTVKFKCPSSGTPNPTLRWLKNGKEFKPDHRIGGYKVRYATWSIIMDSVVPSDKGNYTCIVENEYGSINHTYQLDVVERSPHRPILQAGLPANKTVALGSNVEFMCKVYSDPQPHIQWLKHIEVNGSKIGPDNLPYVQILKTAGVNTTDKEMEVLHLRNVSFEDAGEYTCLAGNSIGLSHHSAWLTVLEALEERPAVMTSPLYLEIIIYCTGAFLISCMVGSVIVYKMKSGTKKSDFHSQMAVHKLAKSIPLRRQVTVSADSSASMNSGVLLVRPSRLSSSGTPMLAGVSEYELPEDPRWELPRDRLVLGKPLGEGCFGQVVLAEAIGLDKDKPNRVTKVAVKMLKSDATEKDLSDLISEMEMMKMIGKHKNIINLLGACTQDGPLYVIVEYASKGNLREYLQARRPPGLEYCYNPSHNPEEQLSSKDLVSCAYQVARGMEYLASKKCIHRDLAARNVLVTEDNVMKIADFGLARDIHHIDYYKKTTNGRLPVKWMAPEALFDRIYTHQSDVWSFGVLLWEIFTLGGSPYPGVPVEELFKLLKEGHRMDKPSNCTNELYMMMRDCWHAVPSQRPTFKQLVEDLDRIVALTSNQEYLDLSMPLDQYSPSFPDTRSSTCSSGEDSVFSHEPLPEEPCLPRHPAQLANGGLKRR

B1: human FGF21, secreted bioactive form (H29 to S209 of SEQ ID NO: 100) (ligand)
chain: HPIPDSSPLLQFGGQVRQRYLYTDDAQQTEAHLEIREDGTVGGAADQSPESLLQLKALKPGVIQILGVKTSRFLCQRPDGALYGSLHFDPEACSFRELLLEDGYNVYQSEAHGLPLHLPGNKSPHRDPAPRGPARFLPLPGLPPALPEPPGILAPQPPDVGSSDPLSMVGPSQGRSPSYAS
notes: Used both immobilized on the SPR chip and in solution; also called wild-type FGF21; native FGF21
Q: For B1, which “Induction of Egr1 protein expression (immunoblot, HEK293 cells co-expressing FGFR1c and βKlotho)” value [1] is on record?
A: > 3 fold greater concentration than the 30 ng ml^-1 of the Q104M mutant

Q: Does B1 bind [2]?
A: no binding

Q: Does B1 bind [3]?
A: no binding

Source: US20130231277A1 (NEW YORK UNIVERSITY, published 2013)
